The text below walks through data of patent publication US20250352667A1.

Where a chain is given by its changes, count along the chain named. Names and notes keep the numbering of the source.

The target of experiment [1] is KEAP1 (wild-type full-length), His-tagged (human) (UniProt Q14145). Description: AlphaScreen; 153.6 nM FLAG-NRF2, 150 nM His-KEAP1; Rep 3; control for I86V. A general note: In Alpha technology, singlet oxygen from a donor bead excites a nearby acceptor bead.
For experiment [2] the target is unchanged. Briefly: AlphaScreen; 2.4 nM FLAG-NRF2, 150 nM His-KEAP1; Rep 1; control for I28V.
The target is the same in experiment [3]. Description: AlphaScreen; 19.2 nM FLAG-NRF2, 150 nM His-KEAP1 (same value as in Table 26).
Experiment [4] has the same target. Briefly: AlphaScreen; 2.4 nM FLAG-NRF2, 150 nM His-KEAP1; signal against NRF2 only; control for I86V.
Experiment [5] shares this target. Briefly: AlphaScreen; NRF2 wt isoform 1 38.4 nM, KEAP1 150 nM; set as the 100 % reference for Q75R.
Experiment [6] has the same target. Briefly: AlphaScreen; NRF2 wt isoform 1 1228.8 nM, KEAP1 150 nM; signal against NRF2-only control; control for Q75R.
Experiment [7] has the same target. Briefly: AlphaScreen; 307.2 nM FLAG-NRF2, 150 nM His-KEAP1; Rep 2; control for I86V.
Experiment [8] shares this target. Briefly: AlphaScreen; 2.4 nM FLAG-NRF2, 150 nM His-KEAP1; Rep 1; control for I86V.
The target is the same in experiment [9]. Description: AlphaScreen; 19.2 nM FLAG-NRF2, 150 nM His-KEAP1; Rep 1; control for I28V.
Experiment [10] shares this target. Briefly: AlphaScreen; 614.4 nM FLAG-NRF2, 150 nM His-KEAP1; signal against NRF2 only; control for I28V.
The target is the same in experiment [11]. Briefly: AlphaScreen; 4.8 nM FLAG-NRF2, 150 nM His-KEAP1; signal against NRF2 only; control for I86V.
For experiment [12] the target is unchanged. Briefly: AlphaScreen; NRF2 I86V 2.4 nM, KEAP1 150 nM; signal against NRF2-only control.
The target is the same in experiment [13]. Description: AlphaScreen; FLAG-NRF2 I86V 9.6 nM, His-KEAP1 150 nM; Rep 2.
Experiment [14] shares this target. Description: AlphaScreen; NRF2 I86V 307.2 nM, KEAP1 150 nM; signal against NRF2-only control.
For experiment [15] the target is unchanged. Description: AlphaScreen; NRF2 I86V 19.2 nM, KEAP1 150 nM; signal against NRF2-only control.
Experiment [16] has the same target. Briefly: AlphaScreen; FLAG-NRF2 I86V 153.6 nM, His-KEAP1 150 nM; Rep 3.
For experiment [17] the target is unchanged. Description: AlphaScreen; FLAG-NRF2 I86V 9.6 nM, His-KEAP1 150 nM; Rep 1.
The target is the same in experiment [18]. Description: AlphaScreen; 76.8 nM FLAG-NRF2, 150 nM His-KEAP1; Rep 2.
The target is the same in experiment [19]. Briefly: AlphaScreen; 9.6 nM FLAG-NRF2, 150 nM His-KEAP1 (same value as in Table 27).
The target is the same in experiment [20]. Briefly: AlphaScreen; average of three conditions; against wild-type NRF2 isoform 1.
The target is the same in experiment [21]. Description: AlphaScreen; 153.6 nM FLAG-NRF2, 150 nM His-KEAP1; Rep 2.
For experiment [22] the target is unchanged. Description: AlphaScreen; 4.8 nM FLAG-NRF2, 150 nM His-KEAP1; Rep 2.
The target is the same in experiment [23]. Description: AlphaScreen; FLAG-NRF2 Q75R 4.8 nM, His-KEAP1 150 nM; Rep 2.
For experiment [24] the target is unchanged. Description: AlphaScreen; NRF2 Q75R 38.4 nM, KEAP1 150 nM; signal against NRF2-only control.
For experiment [25] the target is unchanged. Briefly: AlphaScreen; FLAG-NRF2 Q75R 2.4 nM, His-KEAP1 150 nM; Rep 2.
The target is the same in experiment [26]. Description: AlphaScreen; FLAG-NRF2 Q75R 38.4 nM, His-KEAP1 150 nM; Rep 1.
The target is the same in experiment [27]. Briefly: AlphaScreen; NRF2 Q75R 614.4 nM, KEAP1 150 nM; signal against NRF2-only control.
Experiment [28] has the same target. Description: AlphaScreen; FLAG-NRF2 Q75R 9.6 nM, His-KEAP1 150 nM; Rep 2.

Chain of KEAP1 (wild-type full-length), His-tagged (human) (Q14145 2-624 limits assumed): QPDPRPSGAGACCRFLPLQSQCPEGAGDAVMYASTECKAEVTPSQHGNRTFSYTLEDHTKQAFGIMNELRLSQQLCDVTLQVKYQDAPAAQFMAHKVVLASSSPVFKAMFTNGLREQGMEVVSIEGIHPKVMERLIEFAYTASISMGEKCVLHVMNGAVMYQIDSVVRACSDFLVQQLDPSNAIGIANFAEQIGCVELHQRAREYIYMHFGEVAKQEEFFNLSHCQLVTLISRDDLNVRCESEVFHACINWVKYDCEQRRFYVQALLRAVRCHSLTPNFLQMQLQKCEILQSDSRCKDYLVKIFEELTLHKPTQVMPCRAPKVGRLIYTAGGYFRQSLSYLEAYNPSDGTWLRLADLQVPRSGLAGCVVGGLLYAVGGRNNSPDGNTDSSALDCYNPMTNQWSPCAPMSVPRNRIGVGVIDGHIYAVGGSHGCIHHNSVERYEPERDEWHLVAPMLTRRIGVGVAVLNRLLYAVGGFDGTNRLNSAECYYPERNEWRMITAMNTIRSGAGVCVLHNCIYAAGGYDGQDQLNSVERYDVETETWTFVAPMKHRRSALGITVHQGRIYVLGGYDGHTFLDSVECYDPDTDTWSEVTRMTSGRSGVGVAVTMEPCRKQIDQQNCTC

B1: NRF2 isoform 1 (wild-type full-length), FLAG-tagged (protein)
chain: MMDLELPPPGLPSQQDMDLIDILWRQDIDLGVSREVFDFSQRRKEYELEKQKKLEKERQEQLQKEQEKAFFAQLQLDEETGEFLPIQPAQHIQSETSGSANYSQVAHIPKSDALYFDDCMQLLAQTFPFVDDNEVSSATFQSLVPDIPGHIESPVFIATNQAQSPETSVAQVAPVDLDGMQQDIEQVWEELLSIPELQCLNIENDKLVETTMVPSPEAKLTEVDNYHFYSSIPSMEKEVGNCSPHFLNAFEDSFSSILSTEDPNQLTVNSLNSDATVNTDFGDEFYSAFIAEPSISNSMPSPATLSHSLSELLNGPIDVSDLSLCKAFNQNHPESTAEFNDSDSGISLNTSPSVASPEHSVESSSYGDTLLGLSDSEVEELDSAPGSVKQNGPKTPVHSSGDMVQPLSPSQGQSTHVHDAQCENTPEKELPVSPGHRKTPFTKDKHSSRLEAHLTRDELRAKALHIPFPVEKIINLPVVDFNEMMSKEQFNEAQLALIRDIRRRGKNKVAAQNCRKRKLENIVELEQDLDHLKDEKEKLLKEKGENDKSLHLLKKQLSTLYLEVFSMLRDEDGKPYSPSEYSLQQTRDGNVFLVPKSKKPDVKKN
In the case of B1, the A-counts in experiment [1] was found to be 2990 A-counts; in experiment [2], 622 A-counts; in [7] it was 2790 A-counts; in [8], 860 A-counts; in experiment [9], 1980 A-counts. Also, the S/N came to 4.2 in [3]; 1.7 in experiment [4]; 0.9 in [6]; 1 in experiment [10]; 2.8 in [11]. In addition, the Binding Percentage in experiment [5] is 100%.

B2: NRF2 isoform 1 (I86V full-length), FLAG-tagged (protein)
chain: B1 chain with I86V
Consider B2, for which the S/N was 2.6 in experiment [12], 1.3 in [14] and 4 in experiment [15]. Besides, the figures for the A-counts (NRF2 plus KEAP1) in experiment [13], in [16] and in experiment [17] were 2610 A-counts, 2500 A-counts and 2730 A-counts, respectively.

B3: NRF2 isoform 1 (I28V full-length), FLAG-tagged (protein)
chain: B1 chain with I28V
Turning to B3, the A-counts in [18] turned out to be 1500 A-counts; in [21] it was 1440 A-counts; in experiment [22], 1050 A-counts. Moreover, the S/N in [19] amounted to 3.4. The Reported Value (reduction in binding) in experiment [20] is 30.2%.

B4: NRF2 isoform 1 (Q75R full-length), FLAG-tagged (protein)
chain: B1 chain with Q75R
As to B4, the A-counts (NRF2 plus KEAP1) in [23] was 819 A-counts; in experiment [25], 566 A-counts; in [26] it was 1200 A-counts; in [28], 1090 A-counts. Also, the figures for the S/N in experiment [24] and in experiment [27] were 2.4 and 0.8, respectively.
